The values below are quoted from earlier work in article PMC5414288, “^99mTc-radiolabeled GE11-modified peptide for ovarian tumor targeting” (DARU Journal of Pharmaceutical Sciences, 2017).

pKd: −log10 of the molar value.

For this data set, the target named is EGFR (Homo sapiens) (UniProt P00533).

Usually pKd stands for the Kd on a negative log10 scale, so that one unit is a factor of ten. For GE11, the negative logarithm of the Kd (pKd) was 7.66.
